Experimental data as given in patent US20260308224A1, “METHODS AND COMPOSITIONS FOR DISPLAYING PEPTIDE LIBRARIES” (priority 2023, published 2026).

How the values were obtained:
KOR = biological target: T1, KOR (Homo sapiens, UniProt P41145); experiment: tethered peptide library sorting on GFP fluorescence with NGS; type: cell-based; conditions: metric: positive count
T1 construct: Gpa1 with human Gi3 C-terminal five residues; tethered peptide display
Text: (§1) The first, henceforth referred to as library 1, site saturated the first four positions of the peptide, YGGF, using an NNK mutagenesis strategy (FIG. 5). This is canonically the “message” region, understood to be integral to opioid receptor signaling, with the tyrosine being particularly important. […] In creating this library, it was hoped that it could be determined how much variation is tolerated in this region, and how this might differ for opioid receptor sub-type.
(§2) The second library, library 2, saturated the latter four residues of the peptide, LRRI (FIG. 5). This “address” region is thought to confer receptor specificity, interacting with receptor residues further up the binding pocket (Metzger et al. 2001; Xue et al. 1994; Marie-Pepin et al. 1997), but can still be important for receptor activity. It was hypothesized that more variation would be tolerated in this region, including more sub-type specific variation.
(§3) Libraries were sorted twice on GFP fluorescence. Roughly 15 times the theoretical nucleotide complexity was sorted to ensure rare variants were assayed. […] After the second sorts, the genomes of the positive and negative populations were prepped and the library cassettes were sequenced in technical replicate using NGS at a depth of at least 1 million reads.
(§4) Several strategies were used to both identify unique binders for receptor sub-type and identify generally preferred residues and motifs. Log proportions between the positive and negative pools were determined with a filter of-11 (FIG. 6). […] Because the libraries were sorted twice, and the fraction of cells with a GFP signal small, strong signalers were expected to be present in relatively high numbers in the positive pool.
(§5) To incorporate both metrics, log proportions after a cut off of 500 nucleotide read counts were also determined (FIGS. 7 and 8).
(§6) Beyond identification of general motif trends, variants unique to individual receptors were determined. For a general idea of variant specificity, plots showing receptor specificity by the log proportion metric were generated (FIGS. 12 and 13). […] Logo plots of receptor-unique variants by this metric are highlighted in FIGS. 14 and 15. To account for the noise around potentially low count variants, log proportions between positive and negative pools were determined after filtering on a minimum variant read count of 500 in the positive and negative pools. Variants that were receptor unique by this metric are highlighted in the logo plots in FIGS. 16 and 17.
(§7) Peptide candidates for further analysis were determined by manually curating the three discussed methods (Table 1).
(§8) For cell sorting experiments, post-transformation outgrowths were grown overnight in SD-URA/His pH 5.8 media, and cultures were passaged the following day 1:25 to minimize dead and untransformed cells. The following day the saturated cultures were washed three times in SD-URA/His pH 7.1 100 mM MOPS media without a carbon source to minimize glucose carry-over. Cultures were then diluted 1:10 their initial volume in SD-URA/His pH. 7.1 100 mM MOPS 2% galactose 0.2% glucose media and grown for 24 hours. Cells were then resuspended in an equal volume of TE pH 8.0 and 14-15 million events were sorted using a SH800S Cell Sorter (Sony) on GFP fluorescence, gated for singlets. Cells were sorted into SD-His/URA pH 5.8 media with pen/strep and grown for two days post sorting. Cultures were again washed and induced with galactose and sorted via the same parameters into positive and negative pools and grown up for 2 days. Genome extractions were performed using a Zymo Yeast Star kit.

human opioid receptors = experiment: tethered peptide orientations and controls, GFP reporter signaling in yeast; type: cell-based; conditions: pGal1, integrated; FIG. 20 (cholesterol-producing strain CJM263)
Experimental: (§9) Due to the limited application and efficacy of activating human GPCRs via this strategy, several tethering orientations for the dynorphin peptides were attempted. Anchoring with Flo42 at both the N- and C-termini of the peptides was tried. Additionally, versions with and without a glycine-serine linker between the peptide and the Flo42 region were assayed (versions with linker, FIG. 19). To enable rapid screening, the tethered peptide cassette was expressed on a plasmid under the control of a constitutive promoter.
This optimized tethering orientation was then assayed in the context to be used for library peptide display. Expression was driven by a galactose-inducible promoter, pGal1, and the construct was integrated into the yeast genome. The inducible promoter was used to control the length of peptide expression and minimize potential for unwanted selection from long-term constitutive expression. Like the tethered peptide cassette, receptors were integrated into the genome to avoid downstream issues with variable plasmid copy number and sorting (Bean et al. 2022). […] It was decided to screen MOR with the peptide libraries to determine if there were any variations that could rescue function, with the hypothesis that the sequence space assayed would likely contain variants capable of activating the receptor. […]

MOR = biological target: T2, MOR (Homo sapiens, UniProt P35372); experiment: tethered peptide library sorting on GFP fluorescence with NGS; type: cell-based; conditions: metric: positive count
T2 construct: Gpa1/Gi3 chimeric G alpha; exogenous or tethered peptides
Text: as §1, §2, §3, §4, §5, §6, §7, §8

DOR [1] = biological target: T3, DOR (Homo sapiens, UniProt P41143); experiment: as above; type: cell-based; conditions: metric: positive count
T3 construct: Gpa1 with human Gi3 C-terminal five residues; tethered peptide display
Text: as §1, §2, §3, §4, §5, §6, §7, §8

DOR [2] = biological target: T3, DOR; experiment: tethered peptide agonist display, GFP reporter signaling in yeast; type: cell-based; conditions: individually cloned tethered isolates (FIG. 27)
Experimental: as §9, with “Anchoring” for “Due to the limited application and efficacy of activating human GPCRs via this strategy, several tethering orientations for the dynorphin peptides were attempted. Anchoring”
Expression was driven by a galactose-inducible promoter, pGal1, and the construct was integrated into the yeast genome. The inducible promoter was used to control the length of peptide expression and minimize potential for unwanted selection from long-term constitutive expression. Like the tethered peptide cassette, receptors were integrated into the genome to avoid downstream issues with variable plasmid copy number and sorting (Bean et al. 2022).
Plasmids were constructed using Golden Gate assembly of components from the Yeast Toolkit with some adaptations. Receptors were expressed on either 2μ URA3 backbones driven by the CCW12 promoter or integrated into the yeast genome using a URA3 auxotrophic marker and driven by the TDH3 promoter. Tethered peptide cassettes were expressed on either a Cen6 HIS3 backbone or integrated into the yeast genome using HIS3 auxotrophic markers and were driven by pHHF2 for plasmid-based expression, and pGal1 for integrated expression. Oligos were ordered as gblocks or single stranded DNA from IDT.

HsDOR = conditions: previously tested in yeast (Uddin et al. 2016); cited from earlier work

T2 sequence (P35372 whole entry): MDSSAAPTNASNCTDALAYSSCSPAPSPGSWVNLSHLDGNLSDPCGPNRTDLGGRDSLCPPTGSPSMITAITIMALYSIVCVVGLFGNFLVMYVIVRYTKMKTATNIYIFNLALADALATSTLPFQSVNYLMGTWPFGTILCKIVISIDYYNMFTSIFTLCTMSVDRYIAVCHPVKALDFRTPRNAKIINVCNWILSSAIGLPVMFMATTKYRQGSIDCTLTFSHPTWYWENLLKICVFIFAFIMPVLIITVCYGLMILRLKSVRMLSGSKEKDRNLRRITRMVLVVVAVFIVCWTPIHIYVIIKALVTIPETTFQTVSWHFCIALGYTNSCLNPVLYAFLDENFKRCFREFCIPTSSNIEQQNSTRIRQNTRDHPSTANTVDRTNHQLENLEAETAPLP
T3 sequence (P41143 whole entry): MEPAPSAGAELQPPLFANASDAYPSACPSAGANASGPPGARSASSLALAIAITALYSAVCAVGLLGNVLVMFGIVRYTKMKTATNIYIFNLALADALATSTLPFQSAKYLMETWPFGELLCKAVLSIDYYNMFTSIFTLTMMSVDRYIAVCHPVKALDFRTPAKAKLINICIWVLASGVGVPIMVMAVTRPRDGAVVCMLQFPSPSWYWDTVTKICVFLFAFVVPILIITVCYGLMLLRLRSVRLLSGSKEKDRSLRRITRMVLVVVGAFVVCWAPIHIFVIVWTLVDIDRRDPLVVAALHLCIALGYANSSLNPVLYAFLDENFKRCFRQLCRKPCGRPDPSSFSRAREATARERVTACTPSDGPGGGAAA
T1 sequence (P41145 whole entry): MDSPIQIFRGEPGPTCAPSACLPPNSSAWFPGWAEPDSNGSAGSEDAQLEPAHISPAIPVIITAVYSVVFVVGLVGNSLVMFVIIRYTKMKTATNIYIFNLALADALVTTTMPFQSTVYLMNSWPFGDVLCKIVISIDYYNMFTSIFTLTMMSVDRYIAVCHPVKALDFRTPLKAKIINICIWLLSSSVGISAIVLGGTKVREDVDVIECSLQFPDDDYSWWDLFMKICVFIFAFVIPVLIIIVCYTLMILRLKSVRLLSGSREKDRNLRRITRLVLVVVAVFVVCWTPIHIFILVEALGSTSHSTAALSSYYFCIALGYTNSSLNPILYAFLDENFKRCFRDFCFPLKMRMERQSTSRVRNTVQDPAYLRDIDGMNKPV

## CDIQLRRI
KOR; library 1
  top-performing motif unique for receptor: KOR

## GGGSGGGGSGGGSGGGGS [glycine-serine linker, glycine-serine linker, without peptide agonist, negative control]
Human opioid receptors
  activity of negative controls: no activity

## GLVNLRRI
MOR; library 1
  top-performing motif unique for receptor: MOR

## LVLLLRRI
MOR; library 1
  top-performing motif unique for receptor: MOR

## SAWPLRRI
KOR; library 1
  top-performing motif unique for receptor: KOR

## SHYVLRRI
KOR; library 1
  top-performing motif unique for receptor: KOR

## SVPFLRRI
KOR; library 1
  top-performing motif unique for receptor: KOR

## WWPDLRRI
DOR [1]; library 1
  top-performing motif unique for receptor: DOR

## YGFDLLRI
DOR [2]
  receptor specificity of individually cloned isolates: delta-specific
  signaling of individually cloned isolates: signaled strongly

## YGFDLRRI
DOR [1]; library 1
  top-performing motif unique for receptor: DOR

## YGGFGGSG
DOR [1]; library 2
  top-performing motif unique for receptor: DOR

## YGGFGSGR
DOR [1]; library 2
  top-performing motif unique for receptor: DOR

## YGGFMGSV
MOR; library 2
  top-performing motif unique for receptor: MOR

## YGGFMNYP
MOR; library 2
  top-performing motif unique for receptor: MOR

## YGGFMVAT
MOR; library 2
  top-performing motif unique for receptor: MOR

## YGGFRCCA
MOR; library 2
  top-performing motif unique for receptor: MOR

## YGGFSSGL
DOR [1]; library 2
  top-performing motif unique for receptor: DOR

## YGGFSSRG
DOR [1]; library 2
  top-performing motif unique for receptor: DOR

## YGGFSSSG
DOR [1]; library 2
  top-performing motif unique for receptor: DOR

## YGGFYRLR
KOR; library 2
  top-performing motif unique for receptor: KOR

## YGGFYSRW
KOR; library 2
  top-performing motif unique for receptor: KOR

## YGGFYSYA
KOR; library 2
  top-performing motif unique for receptor: KOR

## YGMELRRI
DOR [1]; library 1
  top-performing motif unique for receptor: DOR
DOR [2]
  receptor specificity of individually cloned isolates: delta-specific
  signaling of individually cloned isolates: signaled strongly

## YQRFLRRI
KOR; library 1
  top-performing motif unique for receptor: KOR

## dynorphin A 1-17
HsDOR
  activity: showed activity
